For assay [1], the target named is GST-DHX9 (human) (UniProt Q08211).
Assay [2] concerns the target T1, GST-Nup98^1–863 (human, UniProt P52948-4 1-863).
T1 construct: Nup98, human, residues 1-863; Held on glutathione magnetic agarose beads by its GST; also called GST-Nup98 (bead halo bait); source: purified recombinant protein (E. coli BL21-CodonPlus(DE3), glutathione-Sepharose 4B)
T1 sequence (looked up): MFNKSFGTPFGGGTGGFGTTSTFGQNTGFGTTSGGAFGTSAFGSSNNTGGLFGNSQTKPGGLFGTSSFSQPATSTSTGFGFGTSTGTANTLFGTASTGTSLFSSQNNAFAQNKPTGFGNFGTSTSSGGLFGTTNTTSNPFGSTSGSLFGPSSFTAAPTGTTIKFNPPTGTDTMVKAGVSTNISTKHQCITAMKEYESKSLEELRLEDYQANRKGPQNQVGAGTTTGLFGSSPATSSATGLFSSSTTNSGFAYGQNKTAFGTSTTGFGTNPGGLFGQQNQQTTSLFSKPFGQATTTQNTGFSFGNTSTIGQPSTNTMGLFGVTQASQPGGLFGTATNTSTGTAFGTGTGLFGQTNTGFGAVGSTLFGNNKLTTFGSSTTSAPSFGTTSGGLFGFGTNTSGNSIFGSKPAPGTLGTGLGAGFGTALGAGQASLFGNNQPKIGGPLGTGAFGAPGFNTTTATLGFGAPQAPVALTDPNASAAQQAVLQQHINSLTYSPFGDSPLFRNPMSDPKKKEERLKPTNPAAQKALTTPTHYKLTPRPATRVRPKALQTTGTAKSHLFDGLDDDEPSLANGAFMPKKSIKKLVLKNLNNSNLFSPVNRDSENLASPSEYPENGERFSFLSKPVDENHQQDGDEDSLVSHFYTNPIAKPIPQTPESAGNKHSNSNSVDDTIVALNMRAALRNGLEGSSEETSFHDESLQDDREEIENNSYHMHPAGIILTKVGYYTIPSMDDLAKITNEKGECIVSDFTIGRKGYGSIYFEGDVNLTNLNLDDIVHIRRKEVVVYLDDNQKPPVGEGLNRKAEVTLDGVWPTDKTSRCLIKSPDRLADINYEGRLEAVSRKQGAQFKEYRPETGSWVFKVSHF
Kind of assay: bead halo assay; GST-Nup98 1-863 held on glutathione magnetic agarose beads (bait); DHX9 domains with C-terminal eGFP (prey) detected by fluorescence microscopy; PBS-T, 10 min, 4 °C; pre-treated with RNase A, poly I:C RNA or buffer alone. The note with it: both partners purified.

“GST-Nup98^1–920 (from UniProt P52948-4 1-920) (natural protein)” yielded an ATPase activity (ATP hydrolysis rate) of GST-DHX9 with excess RNA (poly I:C) and increasing concentrations of GST-Nup98 in assay [1] of 5 fold.

B1: DHX9 1–380 tagged with eGFP (domain or fragment, human, UniProt Q08211 1-380, looked up)
chain: MGDVKNFLYAWCGKRKMTPSYEIRAVGNKNRQKFMCEVQVEGYNYTGMGNSTNKKDAQSNAARDFVNYLVRINEIKSEEVPAFGVASPPPLTDTPDTTANAEGDLPTTMGGPLPPHLALKAENNSEVGASGYGVPGPTWDRGANLKDYYSRKEEQEVQATLESEEVDLNAGLHGNWTLENAKARLNQYFQKEKIQGEYKYTQVGPDHNRSFIAEMTIYIKQLGRRIFAREHGSNKKLAAQSCALSLVRQLYHLGVVEAYSGLTKKKEGETVEPYKVNLSQDLEHQLQNIIQELNLEILPPPEDPSVPVALNIGKLAQFEPSQRQNQVGVVPWSPPQSNWNPWTSSNIDEGPLAFATPEQISMDLKNELMYQLEQDHDLQA
notes: also called N-terminal region (residues 1–380); N-terminal domain of DHX9-GFP; source: purified recombinant protein; not shown: eGFP, C-terminal, kept
For B1, the binding result in assay [2] is reported as “binds”.

B2: DHX9 821–1270 tagged with eGFP (domain or fragment, human, UniProt Q08211 821-1270, looked up)
chain: IEPPPLDAVIEAEHTLRELDALDANDELTPLGRILAKLPIEPRFGKMMIMGCIFYVGDAICTIAAATCFPEPFINEGKRLGYIHRNFAGNRFSDHVALLSVFQAWDDARMGGEEAEIRFCEHKRLNMATLRMTWEAKVQLKEILINSGFPEDCLLTQVFTNTGPDNNLDVVISLLAFGVYPNVCYHKEKRKILTTEGRNALIHKSSVNCPFSSQDMKYPSPFFVFGEKIRTRAISAKGMTLVTPLQLLLFASKKVQSDGQIVLVDDWIKLQISHEAAACITGLRAAMEALVVEVTKQPAIISQLDPVNERMLNMIRQISRPSAAGINLMIGSTRYGDGPRPPKMARYDNGSGYRRGGSSYSGGGYGGGYSSGGYGSGGYGGSANSFRAGYGAGVGGGYRGVSRGGFRGNSGGDYRGPSGGYRGSGGFQRGGGRGAYGTGYFGQGRGGGGY
notes: also called C-terminal segment (residues 821–1270); C-terminal domain of DHX9-GFP; source: purified recombinant protein; not shown: eGFP, C-terminal, kept
On to B2, for which the binding result in assay [2] is reported as “binds”.
